Source: paper doi:10.1101/2022.04.25.489347 (bioRxiv, 2022)
Values belong to the binder of their own block, whether it stands above or below them.

Columns and labels:
H3/H4 tetramer [1] = target: T1, H3/H4 tetramer (UniProt P84233 1-136; P62799 1-103); assay: AUC
AUC = target: the molecule itself; assay: AUC
H2A/H2B dimer [2] = target: T2, H2A/H2B dimer (UniProt P06897 1-130; P02281 1-126); assay: AUC
H3/H4 tetramer [3] = target: T1, H3/H4 tetramer; assay: ITC
H2A/H2B dimer [4] = target: T2, H2A/H2B dimer; assay: ITC
crystal structure = target: the molecule itself; assay: crystal structure

stoichiometry N (H3/H4 tetramer [1]): 1
stoichiometry N (H2A/H2B dimer [2]): 1
Kd (H3/H4 tetramer [3]): 610 ± 40 nM
Kd (H2A/H2B dimer [4]): 460 ± 30 nM
B1: AtFKBP43 (1-136) (domain or fragment, Arabidopsis thaliana, UniProt F4J9Q6 1-136, looked up)
chain: MAFWGVEVKPGKTFTLKNNEATGIRRLHLSQATLGHGTATNRSILQCNVGNKSPLLLCVLTPDKVDSCQLNLEFEETDEVIFSVIGPRSVHLTGYFLGRSTGFRPNDDESESFGEDIVDTDMEKGSSDDYDYSDSF
stoichiometry N (AUC): 5

B2: AtFKBP43 NTD (1-110) (domain or fragment, Arabidopsis thaliana, UniProt F4J9Q6 1-110, looked up)
chain: MAFWGVEVKPGKTFTLKNNEATGIRRLHLSQATLGHGTATNRSILQCNVGNKSPLLLCVLTPDKVDSCQLNLEFEETDEVIFSVIGPRSVHLTGYFLGRSTGFRPNDDES
stoichiometry N (crystal structure): 5

B3: AtFKBP43 NTD (1-96) (domain or fragment, Arabidopsis thaliana, UniProt F4J9Q6 1-96, looked up)
chain: MAFWGVEVKPGKTFTLKNNEATGIRRLHLSQATLGHGTATNRSILQCNVGNKSPLLLCVLTPDKVDSCQLNLEFEETDEVIFSVIGPRSVHLTGYF
stoichiometry N (AUC): 5

stoichiometry N (H3/H4 tetramer [1]): 1
stoichiometry N (H2A/H2B dimer [2]): 1
Kd (H3/H4 tetramer [3]): 18 ± 2 nM
Kd (H2A/H2B dimer [4]): 60 ± 6 nM
B4: AtFKBP43 (1-164) (domain or fragment, Arabidopsis thaliana, UniProt F4J9Q6 1-164, looked up)
chain: MAFWGVEVKPGKTFTLKNNEATGIRRLHLSQATLGHGTATNRSILQCNVGNKSPLLLCVLTPDKVDSCQLNLEFEETDEVIFSVIGPRSVHLTGYFLGRSTGFRPNDDESESFGEDIVDTDMEKGSSDDYDYSDSFINDDDPAVRGSHVSSTDDDEISIKEMTA
stoichiometry N (AUC): 5
